From patent US20250027068

B1: PRT-281 (protein)
chain: MVTSVWTKGVTPPAKFTQGEDVFHAPYVANQGWYDITKTFNGKDDLLCGAATAGNMLHWWFDQNKEKIEAYLKKHPDKQKIMFGDQELLDVRKVINTKGDQTNSELFNYFRDKAFPNLSARRIGVMPDLVLDMFINGYYLNVYKTQTTDVNRTYQEKDRRGGIFDAVFTRGDQSKLLTSRHDFKEKNLKEISDLIKKELTEGKALGLSHTYANVRIGHVINLWGADFDSNGNLKAIYVTDSDSNASIGMKKYFVGVNSSGKVAISAKEIKEDNIGAQVLGLFTLSTGQDSWNQTN
B2: PRT-289 (protein)
chain: MVTSVWTKGVTPPADFTQGEDVFHAPYVANQGWYDITKTFNGKDDLLCGAATAGNMLHWWFDQNKEYIEAYLKKHPEKQKIMFGDQELLDVRKAINTKGSQKNSELFNYFRDKAFPNLSARRLGVMPDLVLDMFINGYYLNVTKTQTTDVNRTYQEKDKRGGIFDAVFTRGDQSKLLTSRHDFKEKGLKEISDLIKQELTEGKALGLSHTYANVGINHVINLWGADFDSDGNLKAIYVTDSDSNASIGMKKYFVGVNSSGKVAISAKEIKEDNIGAQVLGLFTLSTGQDIWNQTN
B3: PRT-305 (protein)
chain: MVTSVWTKGVTPPTDFIKGEDVFHAPYKAGQGWYDITKEFNGKDDLLCGAATAGNMLHWWFDQNKEYIEAYLKKHPEKQKIMFGDQELLDVRKAINTKGSQKNSELFNYFRDKAFPNLSARRLGVMPDLVLDMFINGYYLNVTKTQTTDVNRTYQEKDKRGGIFDAVFTRGDQSKLLTSRHDFKEKGLKEISDLIKQELTEGKALGLSHTYANVRIGHVINLWGADFDSDGNLKAIYVTDSDSNASIGMKKYGVGVNSAGKVAISAKEIKEDNIGAQVLGLFTLSTGQDIWNQTN
B4: PRT-297 (protein)
chain: MVTSVWTKGVTPPADFTQGEDVFHAPYDANQGWYDITKEFNGKDDLLCGAATAGNMLHWWFDQNKEYIEAYLKKHPEKQKIMFGDQELLDVRKAINTKGSQKNSELFNYFRDKAFPNLSARRLGVMPDLVLDMFINGYYLNVTKTQTTDVNRTYQEKDKRGGIFDAVFTRGDQSKLLTSRHDFKEKGLKEISDLIKQELTEGKALGLSHTYANVRIGHVINLWGADFDSDGNLKAIYVTDSDSNASIGMKKYGVGVNSAGKVAISAKEIKEDNIGAQVLGLFTLSTGQDIWNQTN
B5: PRT-23 (protein)
chain: MANQEIRYSEVTPYHVTSVWTKGVTPPANFTQGEDVFHAPYVANQGWYDITKTFNGKDDLLCGAATAGNMLHWWFDQNKDQIERYLKEHPEKQKINFNGEQMFDVKEAIDTKNSQTDSKLFEYFKEKAFPYLSTKHLGVFPDHVIDMFINGYRLSLTNHGPTPVKEGSKDPRGGIFDAVFTRGDQSKLLTSRHDFKEKNLKEISDLIKKELTEGKALGLSHTYANVRINHVINLWGADFDSNGNLEAIYVTDSDSNASIGMKKYFVGVNSAGKVAISAKEIKEDNIGAQVLGLFTLSTGQDIWNQTN
B6: PRT-313 (protein)
chain: MQITSVWTKGVTPLTPEQFRENNEDVIHAPYLAHQGWYDITKAFDGKDNLLCGAATAGNMLHWWFDQNKTEIEAYLSKHPEKQKIIFGNQELFDLKAAIDTKDSQTNSQLFDYFRDKAFPNLSARQLGVMPDLVLDMFINGYYLNVGKTQSTDVNRPYQDKDKRGGIFDAVFTRGDQTTLLTARHDLKNKGLNDISTIIKQELTEGRALALSHTYANVSISHVINLWGADFNAEGELEAIYVTDSDANPSIGMKKYFVGRNAHGHVAISAKKIEGENIGAQVLGLFTLSSGKDIWQKLS
B7: PRT-265 (protein)
chain: MVTSVWTKGVTPPTNFTYGEDVLHAPYVANQGWYDITKLFNGKDNLLCGAATAGNMLHWWFDQNKEQIENYLKKHPEKQKINFNGEQLFDVKEAIDTKDSQLDSKLFEYFLEKAFPYLSTKHLGVFPDHVIDMFINGYRLSLTNHGPTPVKRGSKDKRGGIFDAVFTRGVQSKLLTNRHDFKEKTLKEISDLIKQELTEGKALGISHTYANVRINHVINLWGADFDAEGNLEAIAVTDSDTNASIGMKKYFVGVNSSGKVAISAKEIEEDNIGAQVLGLFTLSTGQDIWNQTN
B8: PRT-273 (protein)
chain: MVTSVWTKGVTPPTDFIYGEDVLHAPYKAGQGWYDITKTFNGKDNLLCGAATAGNMLHWWFDQNKEQIENYLKKHPEKQKIIFNNQELFDLKAAIDTKDSQLDSKLFEYFKEKAFPNLSTKHLGVFPDHVIDMFINGYRLSLLNHGPTPVKRGSKDKRGGIFDAVFTRGVQSKLLTNRHDLKNKTLKEISDLIKQELTEGKALGISHTYANVRINHVINLWGADFDAEGNLEAIYVTDSDTNASIGMKKYFVGVNSSGKVAISAKEIEEDNIGAQVLGLFTLSTGQDIWNQTN
B9: PRT-249 (protein)
chain: MVTSVWTKGVTPPTNFTYGEDVLHAPYVANQGWYDITKTFNGKDDLLCGAATAGNMLHWWFDQNKEQIENYLKKHPEKQKINFNGEQMFDVKEAIDTKDSQLDSKLFDYFKEKAFPNLSTKHLGVFPDHVIDMFINGYRLSLLNHGPTPVKRGSKDPRGGIFDAVFTRGDQSKLLTNRHDFKEKTLKEISDLIKQELTEGKALGISHTYANVRINHVINLWGADFDAEGNLEAIYVTDSDSNPSIGMKKYFVGVNSSGKVAISAKEIEEDNIGAQVLGLFTLSTGQDIWNQTN
B10: PRT-257 (protein)
chain: MVTSVWTKGVTPPTNFTYGEDVLHAPYVANQGWYDITKLFNGKDDLLCGAATAGNMLHWWFDQNKEQIENYLKKHPEKQKINFNGEQMFDVKEAIDTKDSQLDSKLFDYFKEKAFPYLSTKHLGVFPDHVIDMFINGYRLSLTNHGPTPVKRGSKDPRGGIFDAVFTRGDQSKLLTNRHDFKEKTLKEISDLIKQELTEGKALGISHTYANVRINHVINLWGADFDAEGNLEAIYVTDSDSNPSIGMKKYFVGVNSSGKVAISAKEIEEDNIGAQVLGLFTLSTGQDIWNQTN

target: pooled human IgG

| Protein | Enzyme Activity Endpoint Assay (purified): Fab'2 [ng/µL] | Enzyme Activity Endpoint Assay (purified): Fc [ng/µL] | Enzyme Activity Endpoint Assay (purified): IgG [ng/µL] | Enzyme Activity Endpoint Assay (purified): scIgG [ng/µL] | Enzyme Activity Endpoint Assay: Fab′2 [ng/µL] | Enzyme Activity Endpoint Assay: Fc [ng/µL] | Enzyme Activity Endpoint Assay: IgG [ng/µL] | Enzyme Activity Endpoint Assay: scIgG [ng/µL] |
| --- | --- | --- | --- | --- | --- | --- | --- | --- |
| B1 | 673 | 317 | 347 | 29 | – | – | – | – |
| B2 | 581 | 304 | 90 | 114 | – | – | – | – |
| B3 | 786 | 359 | 91 | 0 | – | – | – | – |
| B4 | 484 | 345 | 338 | 0 | – | – | – | – |
| B5 | – | – | – | – | 45 | 125 | 12 | 19 |
| B6 | 409 | 303 | 114 | 328 | – | – | – | – |
| B7 | 0 | 3 | 1640 | 0 | – | – | – | – |
| B8 | 782 | 429 | 0 | 0 | – | – | – | – |
| B9 | 818 | 457 | 0 | 0 | – | – | – | – |
| B10 | 1050 | 439 | 0 | 0 | – | – | – | – |
